First the molecules themselves.
B1: Antiviral innate immune response receptor RIG-I (Homo sapiens), O95786 (parent)
chain: MTTEQRRSLQAFQDYIRKTLDPTYILSYMAPWFREEEVQYIQAEKNNKGPMEAATLFLKFLLELQEEGWFRGFLDALDHAGYSGLYEAIESWDFKKIEKLEEYRLLLKRLQPEFKTRIIPTDIISDLSECLINQECEEILQICSTKGMMAGAEKLVECLLRSDKENWPKTLKLALEKERNKFSELWIVEKGIKDVETEDLEDKMETSDIQIFYQEDPECQNLSENSCPPSEVSDTNLYSPFKPRNYQLELALPAMKGKNTIICAPTGCGKTFVSLLICEHHLKKFPQGQKGKVVFFANQIPVYEQQKSVFSKYFERHGYRVTGISGATAENVPVEQIVENNDIIILTPQILVNNLKKGTIPSLSIFTLMIFDECHNTSKQHPYNMIMFNYLDQKLGGSSGPLPQVIGLTASVGVGDAKNTDEALDYICKLCASLDASVIATVKHNLEELEQVVYKPQKFFRKVESRISDKFKYIIAQLMRDTESLAKRICKDLENLSQIQNREFGTQKYEQWIVTVQKACMVFQMPDKDEESRICKALFLYTSHLRKYNDALIISEHARMKDALDYLKDFFSNVRAAGFDEIEQDLTQRFEEKLQELESVSRDPSNENPKLEDLCFILQEEYHLNPETITILFVKTRALVDALKNWIEGNPKLSFLKPGILTGRGKTNQNTGMTLPAQKCILDAFKASGDHNILIATSVADEGIDIAQCNLVILYEYVGNVIKMIQTRGRGRARGSKCFLLTSNAGVIEKEQINMYKEKMMNDSILRLQTWDEAVFREKILHIQTHEKFIRDSQEKPKPVPDKENKKLLCRKCKALACYTADVRVIEECHYTVLGDAFKECFVSRPHPKPKQFSSFEKRAKIFCARQNCSHDWGIHVKYKTFEIPVIKIESFVVEDIATGVQTLYSKWKDFHFEKIPFDPAEMSK
partner: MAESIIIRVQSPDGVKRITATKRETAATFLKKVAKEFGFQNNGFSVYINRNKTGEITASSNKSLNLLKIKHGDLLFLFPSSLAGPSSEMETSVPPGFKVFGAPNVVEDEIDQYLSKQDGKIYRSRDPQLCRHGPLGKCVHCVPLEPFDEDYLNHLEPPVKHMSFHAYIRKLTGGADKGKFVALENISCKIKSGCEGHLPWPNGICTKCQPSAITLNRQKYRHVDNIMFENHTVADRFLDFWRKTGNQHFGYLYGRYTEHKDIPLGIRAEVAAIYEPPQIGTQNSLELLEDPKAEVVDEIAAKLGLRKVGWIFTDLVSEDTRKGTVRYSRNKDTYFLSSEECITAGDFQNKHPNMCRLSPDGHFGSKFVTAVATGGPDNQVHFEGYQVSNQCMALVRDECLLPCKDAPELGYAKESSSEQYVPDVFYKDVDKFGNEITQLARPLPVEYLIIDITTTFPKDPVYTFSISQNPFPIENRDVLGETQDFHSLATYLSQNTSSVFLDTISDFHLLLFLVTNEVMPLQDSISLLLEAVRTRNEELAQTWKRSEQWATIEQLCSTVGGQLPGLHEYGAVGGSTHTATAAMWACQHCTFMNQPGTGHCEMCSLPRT

Experimental findings from IntAct's records for PubMed 26471729 are described below.

This assay covers variants of B1. As to conditions: with npl4_human NPLOC4, Q8TAT6.
K172R: the “effect of a mutation on the interaction” value was “decreasing interaction strength”.

Take K181R: the “effect of a mutation on the interaction” value is on record as “with no effect”.

For T170E;K172R, the “effect of a mutation on the interaction” value is recorded as “decreasing interaction strength”.
